How the values were obtained:
Assay in all cases: purified protein, by the assay type
[1] = substrate: C=C(C)[C@H]1CC=C(C)C(=O)C1
[2] = substrate: CC1=CC(=O)CC(C)(C)C1=O
[3] = substrate: CC1=CC(=O)[C@H]2C[C@@H]1C2(C)C
[4] = substrate: CC1=CCCC1=O
[5] = substrate: CC1=CC(=O)CC1
[6] = substrate: COC(=O)C1=CCCCC1
[7] = substrate: O=[N+]([O-])C1=CCCCC1

B1: MSMEG_2027 (Mycolicibacterium smegmatis MC2 155) (protein)
chain: MTDAELSPTDWVREQTERILEQGTTDGVHVLDRPIVLFTTTGAKSGKKRYVPLMRVEENGKYAMVASKGGDPKHPSWYFNVKANPTVSVQDGDKVLPDRTARELEGEEREHWWKLAVEAYPPYAEYQTKTDRLIPVFIVE
Q: How did the Km [1] turn out when B1 was run?
A: 3099 ± 916.4 µM

Q: And the kcat [1]?
A: 0.12 ± 0.0114 s⁻¹

Q: And the kcat/Km [1]?
A: 38.7 ± 8.62 M⁻¹ s⁻¹

Q: And the Km [2]?
A: 4550 ± 360.6 µM

Q: And the kcat [2]?
A: 0.459 ± 0.013 s⁻¹

Q: And the kcat/Km [2]?
A: 101 ± 5.7 M⁻¹ s⁻¹

Q: What about the Km [3] of the same protein?
A: 2583 ± 667.2 µM

Q: And the kcat [3]?
A: 0.048 ± 0.0049 s⁻¹

Q: And the kcat/Km [3]?
A: 18.6 ± 3.22 M⁻¹ s⁻¹

Q: And the Km [4]?
A: 1514 ± 111 µM

Q: What about the kcat [4] of the same protein?
A: 0.783 ± 0.0157 s⁻¹

Q: And the kcat/Km [4]?
A: 517 ± 30.8 M⁻¹ s⁻¹

B2: MSMEG_2850 (Mycolicibacterium smegmatis MC2 155) (protein)
chain: MTEAIDWDQMNNQVIKEFRETGGKAGGLFEGSPLVLVHHTGAKSGKQRIAPLVPLLDGDRIYIFGSKGGADSHPDWYHNLVANPDTVVELGTETFPVKARVLTGAERDEIYAKQVAVAPQFGDYQRKTTRVIPVVELQRV
Q: What does the source list for B2?
A: Km [5]: 862 ± 508 µM; kcat [5]: 0.018 ± 0.0026 s⁻¹; kcat/Km [5]: 21 ± 10.5 M⁻¹ s⁻¹; Km [6]: 4355 ± 312.6 µM; kcat [6]: 0.279 ± 0.0071 s⁻¹; kcat/Km [6]: 64.1 ± 3.29 M⁻¹ s⁻¹; Km [7]: 1739 ± 136.9 µM; kcat [7]: 1.07 ± 0.0295 s⁻¹; kcat/Km [7]: 617 ± 35 M⁻¹ s⁻¹

— doi:10.1101/2022.11.05.515281v1
